Reference: US20250163162A1

T1: IL10Rα/IL2Rγ receptor (human) (UniProt Q13651)
T1 sequence (looked up) 1: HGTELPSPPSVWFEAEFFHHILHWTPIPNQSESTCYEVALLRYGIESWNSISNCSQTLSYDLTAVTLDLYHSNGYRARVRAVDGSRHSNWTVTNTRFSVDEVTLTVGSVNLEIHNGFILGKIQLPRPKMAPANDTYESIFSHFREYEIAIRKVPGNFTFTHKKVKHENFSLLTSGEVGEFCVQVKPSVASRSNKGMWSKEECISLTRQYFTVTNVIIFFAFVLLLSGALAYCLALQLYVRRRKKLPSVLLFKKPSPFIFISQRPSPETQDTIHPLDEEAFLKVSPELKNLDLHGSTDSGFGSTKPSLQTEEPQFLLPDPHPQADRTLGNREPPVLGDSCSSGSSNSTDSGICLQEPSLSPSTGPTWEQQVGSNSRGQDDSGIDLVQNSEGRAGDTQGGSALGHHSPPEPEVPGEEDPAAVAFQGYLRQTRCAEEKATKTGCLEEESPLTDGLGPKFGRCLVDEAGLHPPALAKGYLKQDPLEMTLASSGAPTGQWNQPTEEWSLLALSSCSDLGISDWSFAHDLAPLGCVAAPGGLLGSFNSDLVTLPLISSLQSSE
T1 sequence (looked up) 2: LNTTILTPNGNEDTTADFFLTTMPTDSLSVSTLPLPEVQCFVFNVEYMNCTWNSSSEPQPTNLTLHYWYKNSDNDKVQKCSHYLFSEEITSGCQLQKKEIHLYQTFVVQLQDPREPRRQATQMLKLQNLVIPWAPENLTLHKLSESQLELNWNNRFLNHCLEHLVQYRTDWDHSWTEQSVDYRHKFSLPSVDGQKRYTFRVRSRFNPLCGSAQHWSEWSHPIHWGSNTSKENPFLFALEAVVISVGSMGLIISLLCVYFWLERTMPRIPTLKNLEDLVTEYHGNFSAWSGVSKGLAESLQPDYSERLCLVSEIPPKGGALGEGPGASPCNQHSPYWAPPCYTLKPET


These binders were tested against T1, IL10Rα/IL2Rγ receptor (human) (assay: cell-based or functional assay).

Binder | Granzyme A secretion, CD8 T cells, at 0 µM [pg/mL] | Granzyme A secretion, CD8 T cells, at 0.0001 µM [pg/mL] | Granzyme A secretion, CD8 T cells, at 0.001 µM [pg/mL] | Granzyme A secretion, CD8 T cells, at 0.01 µM [pg/mL] | Granzyme A secretion, CD8 T cells, at 0.1 µM [pg/mL] | Granzyme A secretion, CD8 T cells, at 1 µM [pg/mL] | Granzyme A secretion, CD8 T cells, at 10 µM [pg/mL] | Granzyme A secretion, CD8 T cells, at 100 µM [pg/mL] | Granzyme B secretion, CD8 T cells, at 0 µM [pg/mL] | Granzyme B secretion, CD8 T cells, at 0.0001 µM [pg/mL]
hIL10Ra_VHH14 - hIL2Rg_VHH19, No linker, tag his (bispecific antibody, not shown: small tags and cut ends) QVQLQESGGGSVQAGGSLRLSCGASGYTYSSYCMGWFRQVPGKEREGVAVIDSDGSTSYADSVKGRFTISKDNGKNTLYLQMNSLKPEDTAMYYCAADLGHYRPPCGVLYLGMDYWGKGTQVTVSSQVQLQESGGGSVQAGGSLRLSCTASGFTFDDREMNWYRQAPGNECELVSTISSDGSTYYADSVKGRFTISQDNAKNTVYLQMDSVKPEDTAVYYCAADFMIAIQAPGAGCWGQGTQVTVSS | 25200 | 19700 | 22300 | 22200 | 22900 | 24400 | 26000 | 27500 | 77700 | 49300

Same assay, conditions: not given

Binder | Granzyme B secretion, CD8 T cells, at 0.001 µM [pg/mL] | Granzyme B secretion, CD8 T cells, at 0.01 µM [pg/mL] | Granzyme B secretion, CD8 T cells, at 0.1 µM [pg/mL] | Granzyme B secretion, CD8 T cells, at 1 µM [pg/mL] | Granzyme B secretion, CD8 T cells, at 10 µM [pg/mL] | Granzyme B secretion, CD8 T cells, at 100 µM [pg/mL] | IFNγ secretion, CD8 T cells, at 0 µM [pg/mL] | IFNγ secretion, CD8 T cells, at 0.0001 µM [pg/mL] | IFNγ secretion, CD8 T cells, at 0.001 µM [pg/mL] | IFNγ secretion, CD8 T cells, at 0.01 µM [pg/mL]
hIL10Ra_VHH14 - hIL2Rg_VHH19, No linker, tag his (bispecific antibody, not shown: small tags and cut ends) QVQLQESGGGSVQAGGSLRLSCGASGYTYSSYCMGWFRQVPGKEREGVAVIDSDGSTSYADSVKGRFTISKDNGKNTLYLQMNSLKPEDTAMYYCAADLGHYRPPCGVLYLGMDYWGKGTQVTVSSQVQLQESGGGSVQAGGSLRLSCTASGFTFDDREMNWYRQAPGNECELVSTISSDGSTYYADSVKGRFTISQDNAKNTVYLQMDSVKPEDTAVYYCAADFMIAIQAPGAGCWGQGTQVTVSS | 47300 | 44200 | 54800 | 56300 | 67100 | 74300 | 122000 | 102000 | 104000 | 111000

Same assay, conditions: not given

Binder | IFNγ secretion, CD8 T cells, at 0.1 µM [pg/mL] | IFNγ secretion, CD8 T cells, at 1 µM [pg/mL] | IFNγ secretion, CD8 T cells, at 10 µM [pg/mL] | IFNγ secretion, CD8 T cells, at 100 µM [pg/mL] | IL-1β secretion, LPS treated monocytes, at 0 µM [pg/mL] | IL-1β secretion, LPS treated monocytes, at 0 µM (LPS only) [pg/mL] | IL-1β secretion, LPS treated monocytes, at 0.0001 µM [pg/mL] | IL-1β secretion, LPS treated monocytes, at 0.001 µM [pg/mL] | IL-1β secretion, LPS treated monocytes, at 0.01 µM [pg/mL] | IL-1β secretion, LPS treated monocytes, at 0.1 µM [pg/mL]
hIL10Ra_VHH14 - hIL2Rg_VHH19, No linker, tag his (bispecific antibody, not shown: small tags and cut ends) QVQLQESGGGSVQAGGSLRLSCGASGYTYSSYCMGWFRQVPGKEREGVAVIDSDGSTSYADSVKGRFTISKDNGKNTLYLQMNSLKPEDTAMYYCAADLGHYRPPCGVLYLGMDYWGKGTQVTVSSQVQLQESGGGSVQAGGSLRLSCTASGFTFDDREMNWYRQAPGNECELVSTISSDGSTYYADSVKGRFTISQDNAKNTVYLQMDSVKPEDTAVYYCAADFMIAIQAPGAGCWGQGTQVTVSS | 111000 | 123000 | 131000 | 134000 | 6240 | 6880 | 5540 | 5550 | 5370 | 5290

Same assay, conditions: not given

Binder | IL-1β secretion, LPS treated monocytes, at 1 µM [pg/mL] | IL-1β secretion, LPS treated monocytes, at 10 µM [pg/mL] | IL-1β secretion, LPS treated monocytes, at 100 µM [pg/mL] | IL-9 secretion, CD8 T cells, at 0 µM [pg/mL] | IL-9 secretion, CD8 T cells, at 0.0001 µM [pg/mL] | IL-9 secretion, CD8 T cells, at 0.001 µM [pg/mL] | IL-9 secretion, CD8 T cells, at 0.01 µM [pg/mL] | IL-9 secretion, CD8 T cells, at 0.1 µM [pg/mL] | IL-9 secretion, CD8 T cells, at 1 µM [pg/mL] | IL-9 secretion, CD8 T cells, at 10 µM [pg/mL]
hIL10Ra_VHH14 - hIL2Rg_VHH19, No linker, tag his (bispecific antibody, not shown: small tags and cut ends) QVQLQESGGGSVQAGGSLRLSCGASGYTYSSYCMGWFRQVPGKEREGVAVIDSDGSTSYADSVKGRFTISKDNGKNTLYLQMNSLKPEDTAMYYCAADLGHYRPPCGVLYLGMDYWGKGTQVTVSSQVQLQESGGGSVQAGGSLRLSCTASGFTFDDREMNWYRQAPGNECELVSTISSDGSTYYADSVKGRFTISQDNAKNTVYLQMDSVKPEDTAVYYCAADFMIAIQAPGAGCWGQGTQVTVSS | 5800 | 5790 | 7100 | 1350 | 933 | 1120 | 1140 | 1070 | 1220 | 1440

Same assay, conditions: not given

Binder | IL-9 secretion, CD8 T cells, at 100 µM [pg/mL]
hIL10Ra_VHH14 - hIL2Rg_VHH19, No linker, tag his (bispecific antibody, not shown: small tags and cut ends) QVQLQESGGGSVQAGGSLRLSCGASGYTYSSYCMGWFRQVPGKEREGVAVIDSDGSTSYADSVKGRFTISKDNGKNTLYLQMNSLKPEDTAMYYCAADLGHYRPPCGVLYLGMDYWGKGTQVTVSSQVQLQESGGGSVQAGGSLRLSCTASGFTFDDREMNWYRQAPGNECELVSTISSDGSTYYADSVKGRFTISQDNAKNTVYLQMDSVKPEDTAVYYCAADFMIAIQAPGAGCWGQGTQVTVSS | 1670
